# According to the supplement of paper PMC9112550, “Optimization of the antimicrobial peptide Bac7 by deep mutational scanning” (BMC Biology, 2022):
# Tested on: Escherichia coli TOP10
# Test: shrunken log2 fold change of peptide-encoding DNA abundance (4.5 h post-induction vs induction); higher = less antimicrobial activity (less host growth inhibition)
# Conditions: time post-induction: 4.5 h; library: site-saturation at positions 5, 18, 19, 20
# 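Note: peptides expressed intracellularly from a pBAD plasmid library in pooled LB shake-flask culture, induced with 0.3% L-arabinose, DNA abundance read by NGS, three biological replicates, DESeq2 with apeglm shrinkage.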
row,Sequence,shrunken log2 fold change
1,RRIRLRPPRLPRPRPRPRAIPRP,0.0282
2,RRIRLRPPRLPRPRPRPRAMPRP,0.373
3,RRIRLRPPRLPRPRPRPRCSPRP,0.0191
4,RRIRLRPPRLPRPRPRPRDFPRP,-0.206
5,RRIRLRPPRLPRPRPRPRDGPRP,1.06
6,RRIRLRPPRLPRPRPRPREWPRP,-0.0315
7,RRIRLRPPRLPRPRPRPRFGPRP,0.145
8,RRIRLRPPRLPRPRPRPRHMPRP,-0.287
9,RRIRLRPPRLPRPRPRPRMRPRP,0.667
10,RRIRLRPPRLPRPRPRPRNMPRP,-0.0899
11,RRIRLRPPRLPRPRPRPRNSPRP,-0.051
12,RRIRLRPPRLPRPRPRPRPNPRP,0.348
13,RRIRLRPPRLPRPRPRPRPQPRP,0.398
14,RRIRLRPPRLPRPRPRPRRAPRP,0.585
15,RRIRLRPPRLPRPRPRPRTAPRP,0.482
16,RRIRLRPPRLPRPRPRPRVGPRP,0.295
17,RRIRLRPPRLPRPRPRPRVKPRP,-0.0432
18,RRIRLRPPRLPRPRPRPRVQPRP,-0.143
19,RRIRLRPPRLPRPRPRPRVSPRP,-0.0787
20,RRIRLRPPRLPRPRPRPRVYPRP,0.224
21,RRIRLRPPRLPRPRPRPSAEPRP,0.342
22,RRIRLRPPRLPRPRPRPSAKPRP,-0.0639
23,RRIRLRPPRLPRPRPRPSAYPRP,0.0888
24,RRIRLRPPRLPRPRPRPSCAPRP,-0.00959
25,RRIRLRPPRLPRPRPRPSCIPRP,-0.461

row,Sequence,shrunken log2 fold change
1,RRIRLRPPRLPRPRPRPSDVPRP,-0.533
2,RRIRLRPPRLPRPRPRPSDYPRP,-0.106
3,RRIRLRPPRLPRPRPRPSFNPRP,-0.529
4,RRIRLRPPRLPRPRPRPSGVPRP,-0.0863
5,RRIRLRPPRLPRPRPRPSHEPRP,0.031
6,RRIRLRPPRLPRPRPRPSHLPRP,-0.491
7,RRIRLRPPRLPRPRPRPSHRPRP,-0.0457
8,RRIRLRPPRLPRPRPRPSINPRP,-0.32
9,RRIRLRPPRLPRPRPRPSKAPRP,-0.0252
10,RRIRLRPPRLPRPRPRPSKNPRP,-0.296
11,RRIRLRPPRLPRPRPRPSKYPRP,-0.578
12,RRIRLRPPRLPRPRPRPSLDPRP,-0.142
13,RRIRLRPPRLPRPRPRPSMDPRP,-0.327
14,RRIRLRPPRLPRPRPRPSMRPRP,0.421
15,RRIRLRPPRLPRPRPRPSNPPRP,-0.86
16,RRIRLRPPRLPRPRPRPSPAPRP,0.254
17,RRIRLRPPRLPRPRPRPSPQPRP,0.362
18,RRIRLRPPRLPRPRPRPSPSPRP,-0.218
19,RRIRLRPPRLPRPRPRPSRHPRP,-0.415
20,RRIRLRPPRLPRPRPRPSSEPRP,0.0265
21,RRIRLRPPRLPRPRPRPSSFPRP,-0.0574
22,RRIRLRPPRLPRPRPRPSSTPRP,-0.278
23,RRIRLRPPRLPRPRPRPSTKPRP,-0.0833
24,RRIRLRPPRLPRPRPRPSVTPRP,-0.267
25,RRIRLRPPRLPRPRPRPTCIPRP,-0.123

row,Sequence,shrunken log2 fold change
1,RRIRLRPPRLPRPRPRPTEAPRP,-0.00104
2,RRIRLRPPRLPRPRPRPTELPRP,-0.118
3,RRIRLRPPRLPRPRPRPTESPRP,0.0515
4,RRIRLRPPRLPRPRPRPTFMPRP,-0.305
5,RRIRLRPPRLPRPRPRPTGFPRP,-0.158
6,RRIRLRPPRLPRPRPRPTGIPRP,-0.182
7,RRIRLRPPRLPRPRPRPTGKPRP,-0.202
8,RRIRLRPPRLPRPRPRPTHNPRP,-0.0209
9,RRIRLRPPRLPRPRPRPTKVPRP,-0.0842
10,RRIRLRPPRLPRPRPRPTLCPRP,0.163
11,RRIRLRPPRLPRPRPRPTLHPRP,0.18
12,RRIRLRPPRLPRPRPRPTLKPRP,-0.307
13,RRIRLRPPRLPRPRPRPTLSPRP,-0.0659
14,RRIRLRPPRLPRPRPRPTMGPRP,0.147
15,RRIRLRPPRLPRPRPRPTMMPRP,-0.282
16,RRIRLRPPRLPRPRPRPTNCPRP,-0.0927
17,RRIRLRPPRLPRPRPRPTNEPRP,-0.127
18,RRIRLRPPRLPRPRPRPTPGPRP,0.557
19,RRIRLRPPRLPRPRPRPTPPPRP,0.648
20,RRIRLRPPRLPRPRPRPTRKPRP,0.374
21,RRIRLRPPRLPRPRPRPTRMPRP,0.513
22,RRIRLRPPRLPRPRPRPTVWPRP,0.387
23,RRIRLRPPRLPRPRPRPTWEPRP,0.0313
24,RRIRLRPPRLPRPRPRPTYLPRP,-0.0138
25,RRIRLRPPRLPRPRPRPVAQPRP,0.391

row,Sequence,shrunken log2 fold change
1,RRIRLRPPRLPRPRPRPVASPRP,-0.0255
2,RRIRLRPPRLPRPRPRPVDTPRP,-0.142
3,RRIRLRPPRLPRPRPRPVESPRP,-0.0112
4,RRIRLRPPRLPRPRPRPVFCPRP,0.14
5,RRIRLRPPRLPRPRPRPVFQPRP,0.042
6,RRIRLRPPRLPRPRPRPVFTPRP,-0.135
7,RRIRLRPPRLPRPRPRPVHIPRP,-0.182
8,RRIRLRPPRLPRPRPRPVIIPRP,-0.242
9,RRIRLRPPRLPRPRPRPVKLPRP,-0.473
10,RRIRLRPPRLPRPRPRPVLCPRP,0.168
11,RRIRLRPPRLPRPRPRPVMIPRP,-0.269
12,RRIRLRPPRLPRPRPRPVMMPRP,-0.288
13,RRIRLRPPRLPRPRPRPVNIPRP,-0.163
14,RRIRLRPPRLPRPRPRPVPKPRP,0.282
15,RRIRLRPPRLPRPRPRPVPMPRP,-0.0969
16,RRIRLRPPRLPRPRPRPVPVPRP,-0.0404
17,RRIRLRPPRLPRPRPRPVPYPRP,-0.2
18,RRIRLRPPRLPRPRPRPVQLPRP,0.0978
19,RRIRLRPPRLPRPRPRPVRAPRP,0.687
20,RRIRLRPPRLPRPRPRPVRTPRP,0.175
21,RRIRLRPPRLPRPRPRPVWVPRP,-0.0407
22,RRIRLRPPRLPRPRPRPVYCPRP,-0.303
23,RRIRLRPPRLPRPRPRPWACPRP,-0.0699
24,RRIRLRPPRLPRPRPRPWAMPRP,-0.0431
25,RRIRLRPPRLPRPRPRPWANPRP,0.0875

row,Sequence,shrunken log2 fold change
1,RRIRLRPPRLPRPRPRPWDCPRP,-0.0998
2,RRIRLRPPRLPRPRPRPWDLPRP,-0.00277
3,RRIRLRPPRLPRPRPRPWDVPRP,-0.0498
4,RRIRLRPPRLPRPRPRPWFEPRP,-0.218
5,RRIRLRPPRLPRPRPRPWFHPRP,-0.352
6,RRIRLRPPRLPRPRPRPWFIPRP,-0.738
7,RRIRLRPPRLPRPRPRPWGMPRP,-0.0457
8,RRIRLRPPRLPRPRPRPWGNPRP,-0.106
9,RRIRLRPPRLPRPRPRPWHDPRP,-0.205
10,RRIRLRPPRLPRPRPRPWHIPRP,0.0292
11,RRIRLRPPRLPRPRPRPWIHPRP,-0.487
12,RRIRLRPPRLPRPRPRPWINPRP,-0.43
13,RRIRLRPPRLPRPRPRPWISPRP,0.0832
14,RRIRLRPPRLPRPRPRPWLDPRP,-0.233
15,RRIRLRPPRLPRPRPRPWLVPRP,-0.0391
16,RRIRLRPPRLPRPRPRPWPHPRP,0.0514
17,RRIRLRPPRLPRPRPRPWSQPRP,-0.145
18,RRIRLRPPRLPRPRPRPWTAPRP,0.0908
19,RRIRLRPPRLPRPRPRPWTWPRP,0.0307
20,RRIRLRPPRLPRPRPRPWVYPRP,0.0113
21,RRIRLRPPRLPRPRPRPWWDPRP,-0.305
22,RRIRLRPPRLPRPRPRPWYGPRP,-0.53
23,RRIRLRPPRLPRPRPRPWYMPRP,-0.0481
24,RRIRLRPPRLPRPRPRPWYPPRP,-0.242
25,RRIRLRPPRLPRPRPRPYAPPRP,-0.329

row,Sequence,shrunken log2 fold change
1,RRIRLRPPRLPRPRPRPYASPRP,0.000498
2,RRIRLRPPRLPRPRPRPYDDPRP,-0.167
3,RRIRLRPPRLPRPRPRPYDPPRP,-0.109
4,RRIRLRPPRLPRPRPRPYFKPRP,-1.3
5,RRIRLRPPRLPRPRPRPYGPPRP,-0.161
6,RRIRLRPPRLPRPRPRPYHLPRP,-0.213
7,RRIRLRPPRLPRPRPRPYIQPRP,-0.337
8,RRIRLRPPRLPRPRPRPYMMPRP,-0.594
9,RRIRLRPPRLPRPRPRPYNIPRP,-1.31
10,RRIRLRPPRLPRPRPRPYNNPRP,-1.03
11,RRIRLRPPRLPRPRPRPYNTPRP,-0.806
12,RRIRLRPPRLPRPRPRPYQLPRP,-0.253
13,RRIRLRPPRLPRPRPRPYQPPRP,-0.582
14,RRIRLRPPRLPRPRPRPYQYPRP,-0.151
15,RRIRLRPPRLPRPRPRPYRQPRP,-0.0238
16,RRIRLRPPRLPRPRPRPYRTPRP,-0.197
17,RRIRLRPPRLPRPRPRPYTNPRP,-0.6
18,RRIRLRPPRLPRPRPRPYVKPRP,-0.182
19,RRIRLRPPRLPRPRPRPYWPPRP,-0.518
20,RRIRLRPPRLPRPRPRPYYAPRP,-0.484
21,RRIRLRPPRLPRPRPRPYYPPRP,-0.117
22,RRIRMRPPRLPRPRPRPAAEPRP,2.71
23,RRIRMRPPRLPRPRPRPACLPRP,0.236
24,RRIRMRPPRLPRPRPRPACTPRP,0.623
25,RRIRMRPPRLPRPRPRPADNPRP,0.0259
